Reference: US20110086089A1, “USE OF P27KIP1 FOR THE PREVENTION AND TREATMENT OF HEART FAILURE” (UNIVERSITY HEALTH NETWORK, priority 2008, published 2011)
Marks after values point to notes of the source that are not given here.

Test system: WT mice
Assay: Chronic Ang II infusion for 14 days with daily TAT.protein injection, WT mice
Type: in vivo
Conditions: for FS / LVEDD / LVEF / LVESD / PWD: WT, echocardiography at 14 days
Description: FIG. 5 is a series of graphs, blots and cell stainings showing CK2-alpha-prime is important for Ang II action in vivo. […] Transduction of recombinant active CK2-alpha-prime evokes cardiac hypertrophy in the absence of Ang II. (A) Heart-weight corrected for body-weight (left panel) and Masson-stain of myocardial cross sections (right panel). Mean±s.e.m., n=6-8. #P<0.01 vs sham saline. *P<0.01 vs sham saline. Scale bar, 2 mm. (B) Cell size analysis of adult cardiac myocytes isolated from 8-weeks-old mice. One hundred cells from three different mice were analyzed per group. Mean±s.e.m. #P<0.01 vs sham saline. *P<0.01 vs sham saline. **P<0.01 vs Ang II. (c) Determination of ANF/BNP mRNA levels by qRT-PCR. Mean±s.e.m., n=6-8. *P<0.05 vs sham saline. **P<0.05 vs Ang II. #P<0.05 vs sham saline. (D) Visualization of ectopic TAT-conjugated p27deltaPi by indirect immunofluorescence microscopy employing anti-His tag antibodies. Scale bar, 200 μm. (E) Left ventricular extracts (2-3 mg) were subjected to anti-CK2-alpha-prime immunocomplex kinase assays employing histone H1 substrate. Aliquots of kinase reactions were subjected to immunoblotting using antibodies as indicated on the left (top and middle panel). Levels of endogenously expressed or transduced proteins in total left ventricular heart tissue samples (60 μg) were analyzed by immunoblotting (bottom panel). Experiments to (E) were done twice with similar results.
To define whether CK2-alpha-prime -directed p27 turnover plays a role in vivo, the inventors chronically infused Ang II^72 and intraperitoneally injected recombinant TAT-conjugated CK2-alpha-prime and p27 variants in WT and p27^−/− mice (FIG. 9). […] These mice had normal LVEDD and LVESD when compared to Ang II-infused littermates (Table 3). […] CK2-alpha-prime activity and p27 destabilization were similar to their non-transduced Ang II-treated siblings (FIG. 5E).
Spontaneously beating cardiomyocytes from heart ventricles of neonatal rats were cultured and subjected to treatment with angiotensin II (Ang II). DMAT (2-dimethylamino-4,5,6,7-tetrabromo-1H-benzimidazol), DMSO, lactacystin and LLM were obtained from Calbiochem. Ang II was purchased from Sigma. Animal usage was in accordance with approved institutional animal care guidelines. Age-matched male WI C57BL/6 and p27^−/− mice were used in this study. For results shown in FIGS. 1 to 9: Ang II was chronically infused subcutaneously by osmotic pumps (model 2000, Alzet) at a dose of 1.4 μg/kg per minute for 14 days. TAT.proteins (10 mg/kg) were injected intraperitoneally once daily for 14 days. For results shown in FIGS. 10 to 12: Ang II was chronically infused subcutaneously by osmotic pumps (model 2000, Alzet) at a dose of 0.7 μg/kg per minute for 16 days. TAT.proteins (20 mg/kg) were injected intraperitoneally once daily for 8 days starting at day 8. Thoracic aortic banding (TAB) and pressure gradient measurements were performed as described^39.

[1] = Ang infusion 1.4 μg/kg per minute 14 days, TAT.protein 10 mg/kg i.p. once daily
[2] = saline infusion, TAT.protein 10 mg/kg i.p. once daily 14 days

B1: kd.CK2-α′: catalytically-inactive kinase-dead CK2-alpha-prime, point mutation K69M; TAT-conjugated protein in mice, lentivirally expressed in cardiomyocytes (protein)
chain: MPGPAAGSRARVYAEVNSLRSREYWDYEAHVPSWGNQDDYQLVRKLGRGKYSEVFEAINITNNERVVVMILKPVKKKKIKREVKILENLRGGTNIIKLIDTVKDPVSKTPALVFEYINNTDFKQLYQILTDFDIRFYMYELLKALDYCHSKGIMHRDVKPHNVMIDHQQKKLRLIDWGLAEFYHPAQEYNVRVASRYFKGPELLVDYQMYDYSLDMWSLGCMLASMIFRREPFFHGQDNYDQLVRIAKVLGTEELYGYLKKYHIDLDPHFNDILGQHSRKRWENFIHSENRHLVSPEALDLLDKLLRYDHQQRLTAKEAMEHPYFYPVVKEQSQPCADNAVLSSGLTAAR
modifications: left off: small tags and cut ends
notes: TAT-conjugated protein in mice, lentivirally expressed in cardiomyocytes
cardiac hypertrophy to Ang II (heart/body weight ratio, myocyte area, ANF/BNP mRNA) (Ang II-treated WT mice, TAT.proteins 10 mg/kg i.p. once daily 14 days): abrogate cardiac hypertrophy
Ang II-induced CK2-alpha-prime activity (left ventricular immunocomplex kinase assay) (Ang II-treated WT mice, left ventricular extracts): abolished
FS [1]: 38 ± 2.6** %
LVEDD [1]: 3.8 ± 0.2** mm
LVEF [1]: 71 ± 2.3** %
LVESD [1]: 1.3 ± 0.1** mm
PWD [1]: 0.7 ± 0.2** mm
LVEDD [2]: 3.7 ± 0.2 mm
LVEF [2]: 71 ± 2.4%
LVESD [2]: 1.4 ± 0.2 mm
PWD [2]: 0.7 ± 0.1 mm
FS (saline infusion, TAT.protein 10 mg/kg i.p. once daily 14 days, 8-weeks of age): 40 ± 1.5%
